The source of these data is patent publication US20250313632A1.

Assay [1] concerns the target human B7-H3 expressed on A375 tumor cells (human) (UniProt Q5ZPR3). As to the kind of experiment: flow cytometry on A375 cells, MFI(PE); unit from the axis Conc(nM); fit value of a flat control curve. In general terms: A flow cytometer gives signals particle by particle.
Assay [2] shares this target. As to the kind of experiment: flow cytometry on A375 cells, MFI(PE); unit from the axis Conc (nM); fit value of a flat control curve.
Assay [3] deals with human B7-H3 protein (human) (UniProt Q5ZPR3). The assay is described as follows: Octet (BLI) epitope binning on captured human B7-H3; competitor CA84D.
Assay [4] shares this target. As to the kind of experiment: Octet (BLI) epitope binning on captured human B7-H3; competitor AHP05562. (In general: BLI is a label-free optical method that tracks binding on a fibre tip over time.)
For assay [5] the target is unchanged. As to the kind of experiment: Octet (BLI) epitope binning on captured human B7-H3; competitor AHP06345.
Assay [6] addresses human B7-H3 expressed on A375 tumor cells (human) (UniProt Q5ZPR3). As to the kind of experiment: flow cytometry on A375 cells, MFI(PE); unit from the axis Conc(nM).
Assay [7] concerns the target human B7-H3 (4Ig) protein (his tag) (human) (UniProt Q5ZPR3). The assay is described as follows: SPR (Biacore T200), antibody captured on Protein A chip, B7-H3 injected, 1:1 model.
In assay [8] the target is human B7-H3 protein (human) (UniProt Q5ZPR3). As to the kind of experiment: Octet (BLI) epitope binning on captured human B7-H3; competitor 72D1D11.
Assay [9] deals with human B7-H3 expressed on A375 tumor cells (human) (UniProt Q5ZPR3). The assay is described as follows: flow cytometry on A375.S2 cells, MFI(647); unit from the axis Conc (nM).
Assay [10] has the same target. As to the kind of experiment: flow cytometry on A375 cells, MFI(PE); unit from the axis Conc (nM).
Assay [11] shares this target. The assay is described as above. The source holds these as a separate data set.
The target is the same in assay [12]. The description is as above. The source holds these as a separate data set.
The target is the same in assay [13]. The assay is described as above. This is another data set of the same source.
The target is the same in assay [14]. Described as above. The source holds these as a separate data set.
Assay [15] has the same target. The assay is described as follows: flow cytometry on A375 cells, MFI(647); unit from the axis Conc (nM).
For assay [16] the target is unchanged. The assay is described as follows: flow cytometry on A375 cells, MFI(647); unit from the axis Conc (nM); fit value of a flat curve.

Numbering of substitutions follows the chain as printed.

By EC50 is commonly meant the concentration at which the effect is half-maximal. A high value points to weaker potency. For hIgG (antibody), the EC50 in [1] is 0.014 µM; in assay [2], 1970 µM.

B1: AHP05564 (antibody, V domains shown)
VH: EVQLVETGGGVVQPGRSLRLSCAASGFTFSSSGMHWVRQAPGKGLEWVAVISYDVTNKYYVDSVKGRFTISRDNSENTLYLQMNSLRAEDTGVYYCVRDGGPRWLGWYFDLWGRGTLVTVSS
VL: NIQMTQSPSSQSASVGDRVTITCRANQAIANSLAWYQQKPGKAPKLLLFGTSLLHSGVPSRFSGSGSGTEYTLTISSLQPDDFGTYYCQQYFSFPRTFGQGTQVDVY
As usually defined, the Kd is the concentration at which binding is half-saturated. Read a low Kd as tighter binding. By koff is commonly meant a measure of how fast the partners let go of each other. Read a low koff as a long-lived complex. Usually kon stands for the rate constant with which the complex forms. Low readings indicate slower complex formation, high ones faster complex formation. As to B1, in [3], the inhibition ratio came out at 80.1%. The inhibition ratio in assay [4] was -3.53%. Besides, the inhibition ratio in [5] turned out to be 5.92%. The same molecule showed an EC50 in assay [6] of 0.0024 µM. In assay [7], this molecule had a Kd of 0.00052 µM, a koff of 0.000862 s⁻¹ and a kon of 1.66e+06 M⁻¹ s⁻¹.

B2: 312E1E2 (antibody, V domains shown)
VH: QVQLQQSGPELVRPGVSVKISCKGSGYTFTDYAMHWVKQSHAKSLEWIGIVSTHYGNTNYNQNFKGKATMTVDKSSSTVYMELARLTSEDSAIYYCARSEGLRLDWFAHWGQGTLVTVSA
VL: DIQMTQSPASLSASVGEIVTITCRASENIYSYLAWYQQKQGKSPHLLVYNAKTLAEGVPSRFSGSGSGTQFSLKISRLQPEDFGSYYCQNHYVFPFTFGSGTKLEIK
Turning to B2, the inhibition ratio in assay [3] is -18.3%; in assay [8], -32.6%; in assay [4] it was -24.4%; in [5], 90%. For the same molecule, in [9], the EC50 was determined as 0.00019 µM.

B3: 429H9F10 (antibody, V domains shown)
VH: QIQLVQSGPELKKPGETVKISCKASGYTFTYYGLNWVKQAPGKGLRWMGWINTSSGVPTYADDFKGRFAISLESSASTVFLEISNLKNEDTAAYFCAKDDGYFYTMDHWGQGTSVTVSS
VL: DIVMTQPPLSLPVSLGDQASISCRSSQSLVHNNGKTYLHWYLQKPGQSPKLLIYKVSNRFSGVPDRFSGSGSGTDFTLKISRVETEDLGVYFCSQSTQVPWTFGGGTKLEIK
For the molecule B3, the inhibition ratio is -8% in assay [3], 98.9% in [8], -22.4% in [4] and -11.5% in assay [5]. In assay [9], the EC50 was 0.0007 µM.

B4: 72D1D11-z16 (antibody, V domains shown)
VH: QIQLVQSGSELKKPGASVKVSCKASGYTFTNLGLNWVKQAPGQGLKWMGWINTAGGQPTYAEDFKGRCVFSLDTSVSTAYLQISSLKAEDTAVYFCARDDGYYYTMDYWGQGTTVTVSS
VL: B3 VL with P7S, S14T, L15P, D17E, Q18P, N32S, K50Q, T85A, L88V, Q98H
Regarding B4, the EC50 in assay [10] amounted to 0.00032 µM.

B5: 72D1D11-z8 (antibody, V domains shown)
VH: B4 VH with I2V, K38R, K46E, F95Y
VL: B3 VL with P7S, S14T, L15P, D17E, Q18P, N32S, K50Q, T85A, L88V, Q98H
As for B5, the EC50 in assay [11] is 0.00046 µM.

B6: 72D1D11-z14 (antibody, V domains shown)
VH: B4 VH
VL: B3 VL with P7T, S14T, L15P, D17E, Q18P, N32S, K50Q, T85A, L88V, Q98H
B6 had an EC50 in [10] of 0.00057 µM.

B7: 72D1D11-z12 (antibody, V domains shown)
VH: B4 VH with I2V, K38R
VL: B3 VL with P7S, S14T, L15P, D17E, Q18P, N32S, K50Q, T85A, L88V, Q98H
In turn, B7 came in with an EC50 in assay [10] of 0.00035 µM.

B8: 72D1D11-p2 (antibody, V domains shown)
VH: QIQLVQSGPELKKPGETVKISCKASGYTFTNLGLNWVKQAPGKGLKWMGWINTAGGQPTYAEDFKGRCAFSLETSASTAYLQINNLKNEDTATYFCARDDGYYYTMDYWGQGTSVTVSS
VL: B3 VL with P7T, N32S, N33Q, T85A, Q98H
The molecule B8 showed a half-maximal effective concentration (EC50) in assay [12] of 0.00054 µM.

B9: 72D1D11-p1 (antibody, V domains shown)
VH: B8 VH
VL: B3 VL with P7T, N32S, G34A, T85A, Q98H
The molecule B9 came in with an EC50 in assay [12] of 0.00049 µM.

B10: 81C8A1 (antibody, V domains shown)
VH: QVTLKESGPGILQPSQTLSLTCSFSGFSLSTSGMGVSWIRQPPGKGLEWLAHIYWDDDRRYNPSLKSRLTISRDTSRNQVFLQITTVDTADTATYYCARSPYGSEAYWGQGTLVIVSA
VL: QIVLSQSPTILSAFPGEKVTMTCRASSSVSFIQWYQQKSGSSPKPWIYSPSNLASGVPTRFSGSGSGTSYSLTIGRVEAEDAATYYCQQWSSYPWTFGGGTKVEIK
As for B10, the inhibition ratio in [3] is -6.3%; in assay [8], 95.4%; in [4] it was 90.6%; in assay [5], -12.1%. Moreover, the EC50 in [13] is 0.00017 µM; in [14] it was 0.00025 µM. For the same molecule, in assay [7], the Kd came to 0.000196 µM. This molecule gave a koff in assay [7] of 0.000111 s⁻¹. This molecule came in with a kon in assay [7] of 567000 M⁻¹ s⁻¹.

B11: 72D1D11-z3 (antibody, V domains shown)
VH: B4 VH with I2V, K38R, K46E, C68F, F95Y
VL: DIVMTQSPLSLPVTPGEPASISCRSSQSLVHSNGKTYLHWYLQKPGQSPQLLIYKVSNRFSGVPDRFSGSGSGTDFTLKISRVEAEDVGVYYCSQSTHVPWTFGGGTKLEIK
Take B11: the EC50 is 0.0004 µM in assay [13], 0.00058 µM in assay [11] and 0.00064 µM in assay [15].

B12: 72D1D11-z7 (antibody, V domains shown)
VH: B4 VH with I2V, K38R, K46E, F95Y
VL: B11 VL
B12 yielded an EC50 in assay [11] of 0.00052 µM.

B13: 72D1D11-z13 (antibody, V domains shown)
VH: B4 VH
VL: B11 VL with S7T
With B13, the EC50 in assay [10] was 0.00036 µM.

B14: 72D1D11-z3p8 (antibody, V domains shown)
VH: B4 VH with I2V, K38R, K46E, C68F, F95Y, D100A
VL: B11 VL with G34A
In the case of B14, the EC50 in assay [16] was found to be 22.4 µM.

B15: 72D1D11-z11 (antibody, V domains shown)
VH: B4 VH with I2V, K38R
VL: B11 VL
Consider B15, for which the EC50 in [10] came out at 0.00036 µM.

B16: 72D1D11-z3p6 (antibody, V domains shown)
VH: B4 VH with I2V, K38R, K46E, C68F, F95Y, D100R
VL: B11 VL with G34A
In turn, B16 returned an EC50 in [16] of 20.9 µM.

B17: 72D1D11-z15 (antibody, V domains shown)
VH: B4 VH
VL: B11 VL
B17: in assay [10], the EC50 amounted to 0.00047 µM.

B18: 72D1D11-z3p7 (antibody, V domains shown)
VH: B4 VH with I2V, K38R, K46E, C68F, F95Y, D100L
VL: B11 VL with G34A
Turning to B18, the EC50 in assay [16] worked out at 115 µM.

B19: 72D1D11-z9 (antibody, V domains shown)
VH: B4 VH with I2V, K38R
VL: B11 VL with S7T
Regarding B19, in assay [10], the EC50 was determined as 0.00051 µM.

B20: 81C8A1-z3 (antibody, V domains shown)
VH: QVTLKESGPALVKPTQTLTLTCTFSGFSLSTSGMGVSWIRQPPGKALEWLAHIYWDDDRRYNPSLKSRLTISKDTSKNQVVLTMTNMDPVDTATYYCARSPYGSEAYWGQGTLVTVSS
VL: EIVLTQSPDFQSVTPKEKVTITCRASSSVSFIQWYQQKPDQSPKPWIYSPSNLASGVPSRFSGSGSGTDFTLTINSLEAEDAATYYCQQWSSYPWTFGQGTKVEIK
Molecule B20 yielded an EC50 in assay [14] of 0.00023 µM.

B21: 81C8A1-z4 (antibody, V domains shown)
VH: B20 VH
VL: B20 VL with T5S, F70Y
As for B21, the EC50 in assay [14] was 0.00028 µM.

B22: 81C8A1-z8 (antibody, V domains shown)
VH: B20 VH with K73R
VL: B20 VL with T5S, F70Y
Take B22: the EC50 in assay [14] came out at 0.00025 µM.

B23: 81C8A1-z7 (antibody, V domains shown)
VH: B20 VH with K73R
VL: B20 VL
As for B23, in assay [14], the EC50 was 0.00039 µM.
